# Assay results taken from the domain aggregation screens of Martell et al. (2025).
# Assay: soluble fraction after stress (log2 fold change); higher = more stays soluble; pooled small domains, quantitative proteomics
# Conditions: stress: pH 4
# In short: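 Pooled custom libraries of small protein domains were stressed at pH 4 and then measured by high-throughput quantitative proteomics. The fold change in the amount of each domain that stays soluble after the acid stress serves as a measure of aggregation propensity. Fold changes are given on a log2 scale, and higher values mean more of the domain stayed soluble.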
row,Sequence,soluble fraction (log2)
1,HMLFSDSDLKSLLDKDISYVIEMYKAASKEQKRIISDMVAQKVMEKKYIDANILIQLGELTGINYMDL,-1.32
2,HMEEFAGYINGQPYYGPTHQHRGVKMVGAEHTQRPHPLVWDSVAKSLDNYDNRFQWVNGNLLQVV,0.3
3,HMNTPAENFDKAVEKYKSTNSATEKDAAFKVIEDEWIKLSDEEKKERQDEYDSIFESEGDRV,0.22
4,HMTRRGPLTEGDRVQVRDPKGRFHQVILVRGGRFQSNRGGFNHDDVIGRPDGQVIITDEGRQFQIL,0.0981
5,HMNAVYPNPFVSEIYIGENNRSVEIYNLNGGLVYGMSQPSSRIDVSGLAAGSYILIKKDSSGHISSHKIMK,-0.261
6,HMQPLRQGDFVTSEVVKVQDGTAVLRTAQGTLLSASLTGNLGLLPGDRVETVVVEASPGRFVLRVLDIIR,-0.266
7,HMRMLLEERLDEIVKIVNERGSISNQELVKMFGASESTIRRDITTLANDNRVIRVHGGAMSVVS,-0.387
8,HMNATLSSSYPTSVVTDGEIYKLTFGLNGKYNGQEQITVKPHGDSNIYDSGGLRAYQNTQSNNVVTLN,-0.254
9,HMNKIENLSQTILNILRKDHSQAFNYKQIAAKLQLDDPSSRNQIVKKLKDLQGKGTIQEIERGKYILTP,≥ 0.43
10,HMDDPYAGLRQRAYLFLRERDGAVPEEELIEHVFGSSGNPALWRPLLRQVLGADDRLDLRADGYWALRG,-0.839
11,HMRKLDQRLAGLLLGKGRLVKATHQQLADELGSVREMVSRLLKGFAEHDLVRMSREQIEIVDAAGLRKLAD,-0.611
12,HMSGRVPTADDIAVGMKVYVPRLGGTGTVVTEPVRDKVVIQVGSLRLHAEVAELLLPDEHGRIQVPR,-0.127
13,HMESSREVSFSEFMKQIDSGRVSSVKLDGETIYVRNSDGTSYKVIQPLGTDLIGVLRKSDIDVQAIKQ,0.165
14,HMVNPIDFYLLFRTELQRLAEHPITVDRLTEVTGLNKLQVLDWLKRAEQDGLVKKLNRPTRYQLN,-0.536
15,HMKIDEVSFAYIERTLFSMLGKLPTPVNKVIATIGEEKKETIWEVIRFLESENKLITNEDGTLQL,-1.77
16,HMINLDYILELIFEKNNKTKDKTALIEEIRGVIRASVGNRAKESLIVDFINDTDLDTITDKASIIESFFEY,-2.64
17,HMEAVIGGIYRHYKGNNYKLLAVATHSETLEKMAVYQALYGEMGIWVRPLAMFMETIEKDGQSLKRFE,-0.932
18,HMVQVDNELTEFSVQSITRGIDALGEVTIRVTAPDGGVYTGRGADNDIIVSSTKAYLNALNRLLNDK,-0.552
19,HMQIEQVDYGTFMTMIDDKKIDKVEIKDNQILFIGKDDNKKYKTGIVQDPQLAERLHASGAVFSQDI,-0.158
20,HMENNNIAFSKFLEEVDSGRVVQVEIQGNNISGTLSDGSKFKTYSPNYPDLVSKLSEKNVSIIASPV,0.166
21,HMNRNHVFDSNGPDLRLRGTAQQLFEKYLQLGRDATSGGDRVMAEGYFQHAEHYFRILNAMNQAAMQH,-0.0835
22,HMEDQVITQFNMRLIRAVMPQGAPMIVVYEDPKDYPGLFVARLFDGRKSTHLIALADTLEDI,-0.351
23,HMFDVNSMIAANIVAILKKQNRKQIDLAGALQTNKQTISKMLNGSRMINAIELKRIAEFLGVKMEELTKL,0.0597
24,HMTTLLNHLKGTRLEAGLSQQALARLAGISRQAYSALESGSSNPSTEVALRLARALKTSVDHLFSLPE,0.0864
25,HMGKKIVERRNTILNMVNKYGTLDFPQLRDAFPDVSDVTLRKDLQYLDSTKQAIRTHGGIKSI,-0.00897
26,HMQRVSDKVAAQLRVLVQEQQLKPGDRLPAERALAVQLGVSRTALREAIAQLASQGLLTARVGGGTYVAEP,0.22

row,Sequence,soluble fraction (log2)
1,HMNKRYKVQVTTDNLKIRKGAGTSYPVVGHITDKGTYTIVETSGKWGKLLSGAGWIYLSYTKK,0.22
2,HMLIDSNNYFFYKVKPKEGFYSLQKKLGVNRSEIEKHNPSLINEVLKEGMILKIPKYLLNFDLN,-0.214
3,HMGTKDVNAAPSAVGRTYDEAIEILNGYKAGYLEEYSDTVPKGTVISQSVQDGQVVIVVSLGPKPS,-0.18
4,HMGKSDEIFIQKSALYEELGQPDRALEMIYSALKSDSLNIDVLHRLVTLLINQNKNEDAILYNQKIID,-0.424
5,HMKPRISMITLGVKDLNKSIEFYGGGLGFPRKKTEPEIAIFKLNGSWLSLYNRGLLAEDANVS,0.347
6,HMDSERTALLSSDRTSFTAREAALLIGVSQRDIYRMIEDELLDSFTVGKMIRIRRSALEWWLS,-1.46
7,HMSEKLLTLNEISEKLRVSRHTVQAWVSPSSPNHRPEFSSLARHAGRKTVFLESDVDAWLAQRR,-0.385
8,HMTNVETLVRMRLRSIRTTLGYSLDEIAERSNLSASTVSRIETGKRALSIDVLVPLAAALQVSVDDLLRAE,-1.31
9,HMEELNFYPNPAYKYINLDYVGLKEIYTVLGKKLLETYDTRINISNLNSGIYLIKFKNQALRFVK,-0.32
10,HMGKQIKEIVEEYYDSTSKNSPVGGSWKTSLDGVDLTSPNITIWTRTKIKYVDGSESIVTPQSL,-0.528
11,HMALQLPFSFAKRHKVLVESAHEPVKVYHTPSTDFAVFAEVRRFLDQTFVLEEIAENRFEELLTSSFQRD,-1.46
12,HMSSVTGMERFLSSGAVKGIGKTMAARIVEHFGTETMTVLESFPERLAEVPGIGAKKAEAIGQSYSEISD,-0.259
13,HMRILGIDPGSVVTGYGVIDKSGNYLRHVLHGEIKPHKGYLLSEVLMDIFSKLSAVIVETNPQSV,0.146
14,HMKSNKEKIYDFIQMHDTAEKEGGVSTTYIAQALSLQRTNVSSLLNALVEEGRIHKSNGRPVLYSIAG,0.178
15,HMTGPSYTTRRVEAAETMMEFLRTFPQAAPFIGDLYVKAQDWPLGEEIGDRLKKMLPPQLQE,-0.451
16,HMNIAESIRKYRKASGLTQEEMAKRLGVTTPAVSKWENGITNPDIALLAPIARLFHISVDTLLSYR,0.0976
17,HMVSRQINVIPDDLAGLRLDQALAHLFPQHSRSRLKEWLLEDIIIVQGGPKRPKDIVSGGEIVEIKL,-1.2
18,HMKIDANTFTSIEKQLFVLLSKTPTPMGSIFVALAKEDKEAVWEVIHFLEAENRLIMNEDGTIQL,-1.09
19,HMSFISRMVVAVEDIALSTRPNSTPSGDKYVSKGTVLLMEKRENDWVEVRQPSSPLSGWAPKTSLLSV,-0.426
20,HMADKHVAAALLKLMDHLVGGRQYAFMKGRLTINKKVVLEATEVSAYRRGTGLSDADWQQRYE,-0.978
21,HMGTGTYQVWSANGLGVRMRSGPGTGYRILAVYSVGTSVTVLQKGAYWSYIRVGSRTGYMMNQFLVSG,-0.268
22,HMITEQEFQRVAAYVKNKAGINLNEKKVLVQGRLDSYMQRKGYSSYDEFMDRVERFPTGPEAEDLMNALTT,0.0246
23,HMSSWEDNFSYWIRNVAETLDKDLLNVANSKLEKIIINAALDQTNGKKNEAAILLGLGRNTLAKKIKELG,-0.929
24,HMATGIKAVDNVFGWMNLEQVAKTVGLDIPSVLRASGLPEDTPVDISIKKIPGVDDEELKDSLRQYIEKS,-0.237
25,HMNYTYTVPEGIRYLRADKALALAFPDHSRTALQRAFDSGLVTLRGVAIKRDQSVTALDTLEFAMPDI,-0.675
26,HMIQKTHPALEIVKEYFSSQAASEFEAERFFNYYTSNGWLIGGKTKMKDWQAAARNWILNTAK,-0.255

row,Sequence,soluble fraction (log2)
1,HMVQQAVNMAKPGKLFTGPSPTSKALRDLDAGAMLYPTGEKQGPFWKVQDELGNEGWVAMGLLQLA,-0.0346
2,HMLINLGPRIRKERRSKGISQSDFSKNLGISASYLNLLENGRRTLTVPLLIKIGNELNLSLKDL,0.113
3,HMNKNIKIPNISNLSREDAESVLKESGISVSTEIKEVESDTIEKGKVVKTEPSIGSTVKQGRTITIYISSG,0.092
4,HMFPELSPEEQLIVEVLSKTNDLQVNLISVKTNIDISRLTSLLFTLEMKGVIKTFAGGMYHLL,-0.712
5,HMDFFTAAPEEDEIGKRIDVYIAEYKEELSRSRVQKLIENGLVTVNGKAVKSNYKLRKGDILEVEIPDPE,-0.00543
6,HMQVTDADFDQIRLAVLSQLKQNSLTVAELLKIIPFKEQKVMPVIRFLIDNRVLEHGTDMKLTVGNSVK,-0.34
7,HMVPDVVGKDYALAQAELEGANLVVAKGSSRYDDTLPAGVVLATDPKVGTVVKPGAKVTVILSK,0.268
8,HMTPAIEKTAVIVFINGKKYYVHTVKSGETLYSIAKAYKVDEKVIKEHNPNVADGLRIDQTVKIPVPEQVK,-0.0592
9,HMDDATDLPYQEFRTQVSDGQVKIAQFNNNTGKITFESISGDKFKTSGPLELSSDDERLFLENIEDFKFFT,-1.1
10,HMEEDDGVDFHERLTELNDEQVYYLINTEPAKVIALALDQLGQKRKINIMNRFNPDMKHSIIMELGKL,-0.666
11,HMTIKLFPNPSTDFIRVSELSAKENYKIYTILGSEIKRGSVSNNETIDIRNLNSGVYLLKFDNGTTKKIVK,0.124
12,HMYSDIERAMTNAPEQFANKQAVLDFLNKNRIKKSEVDDYRIASLLKLYDDASPISKTEIISQVRT,-0.0708
13,HMNEVRINTAHIEHKYLGEVKVLDIQEMRNARGRDADPLAFLAIRFWSPRGVLVRVKDSRDATPYWLIS,-0.227
14,HMDRYVDEEKRFYWRSGEAYLNFSKYKDRSLAEVATVDPGFLRWMMEADFSPETKQIVERALEGEFPQKK,-0.244
15,HMNMFGIQRRNHLLSLLQEKKSITVQEAAVIFEVAEETIRRDFRTMEGQGLIVRTHGGALLADD,-1.14
16,HMTEGDRLARRILRLVRNKPNGYPEVELMKATVLDWNHFQRSISSLEMAGILERRDPGDGTPPVWVEKR,-1.11
17,HMTQTGEVIRWDAERGFGFIATADGRRHVFFHVRDFRGGAAPGVGLRVGFEEIQVGGKGPRAMDVRPL,-0.491
18,HMLPSWLPTDAWEAFLEARVAMKARPTERAKGLLLGELSKLVSQGQDARAVLEQSVQRGWRGLFPVK,0.0676
19,HMILNPADEEKMNLINFELQQRGLEINDKEMQYIFTHHSRDLNSLLNLAEKLDEISHQEKKSISINLIKKI,-0.158
20,HMGDKVTIPNLIDMKLTDAQNQYKPQGFSIVKNGERESDKEAGTILEQDKAAGTEISGKDIRIFVVVSSGS,-0.302
21,HMNNGYSINEIAKLMKMTLKVVRRYVASGELKTTKTNNTYSISEEAFNEFKKYIEEGGDAKHAQEVADTFK,-0.554
22,HMHMNFGEILQTKRKEKGFTQEELAHQLLVSSKTISNWETNKTTPDIDNVIRISQLFDISLNQLLLE,-0.424
23,HMGEDLTIDQLAAEVDMTVRNIRAHQARGLLPPPTIKGRIGYYGPLHRRRLQQIRAMQEEGLNLAAIAKVV,-0.533
24,HMLNEIMDTINKYISDKRNNKVAQNILSAALDELNSQIRVGLKDLNPHSIEEFKENVINSPYIEFEQG,-0.126
